Positions count from the first letter of the chain named. Ends that are not written are not given here. * marks the point of attachment. Myristoyl = CCCCCCCCCCCCCC(=O)*
Key:
Test in all cases: crystal structure
[1] = target: T1, SIRT2^H187A (human SIRT2 residues 50–356, H187A) (human, UniProt Q8IXJ6 50-356, H187A)
T1 sequence (looked up): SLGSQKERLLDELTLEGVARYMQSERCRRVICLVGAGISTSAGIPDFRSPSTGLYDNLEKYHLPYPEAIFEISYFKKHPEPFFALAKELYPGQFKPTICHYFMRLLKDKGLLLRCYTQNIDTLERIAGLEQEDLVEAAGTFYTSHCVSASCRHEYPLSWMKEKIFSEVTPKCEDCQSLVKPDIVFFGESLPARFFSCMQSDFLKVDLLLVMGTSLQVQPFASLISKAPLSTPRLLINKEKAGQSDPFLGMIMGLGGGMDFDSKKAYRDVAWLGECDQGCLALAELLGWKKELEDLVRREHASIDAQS

[2] = target: T2, human SIRT2 (residues 50–356) (human, UniProt Q8IXJ6 50-356)
T2 sequence (looked up): T1 sequence (looked up) with A138H

[3] = target: T3, SIRT2^F96A (human SIRT2 residues 50–356, F96A) (human, UniProt Q8IXJ6 50-356, F96A)
T3 sequence (looked up): T1 sequence (looked up) with F47A, A138H

- binding result [1]: binds
- binding result [2]: binds
- binding result [3]: binds
B1: H3K18myr peptide (APRKmyrQLA) (peptide)
peptide: APRK(Myristoyl)QLA

Source: paper PMC12439037 (RSC Chemical Biology, 2025)
